Test results taken from the DeepSol protein solubility set.

Assay: soluble on expression in E. coli; label from the status in PepcDB or PDB records

Sequence | soluble on expression in E. coli
MSLKVIWTVTPVGYQRIAKRCPSCSVKRDFTPSGAFRVNSQKKVLDVWSIYKCTHCDYTWNISLFSRLPVSKINRDLYCRLMANDAATVQYFAYDNAILKRNNAELSGQPDFHIQERWLVSIASHKQVSVSVRISRSFQVSLLSILKKQLLLSAAEIKRRIETGQISGVTMKMLKSRKLKNAKYDLQLSVETLYDRRRIVLTCREGHHHHHH | soluble
MKLFHRITISLSEDDMKLIEELRRDSGDSLSKIFREAIQLYYNLLKASKAAGVDFRKYFANATRLAFHINGVEQKQFAVIDREIYRVMLKKLQEKVPPESIESDEEFRSAVAGVVKLFEITRDRWSEYTDEQKLEEILTTMEFAGAGTFARVGDKEYIFNTYAESTAITKLIISSVLASAGLKVEIDHTPGKIFIRL | not soluble
MGSDKIHHHHHHMNVENQSLSDIEIILSHRYDNGADYWTTPDKRLIKGSPFSTLDSVLYLLELGVNPDDTLLKECADLIFSTWREDGRFKLYPNGGIYPCHTANAANVLCHMGYASDIRMQKTFQHFLDTQYTDGGWRCNKFSFGRGPETEYSNPLPTLNILNAFRFSNYLNKESKLDKAVDFLLDHWTIKKPIGPCHYGIGTLFMQVEYPFRNYNLFLYVYVLSFYSRAKKDKRFLEALKILESKMIGNKIVVERVVPKLSKLSFCKKGESSEIATTHYYEILKNLDK | not soluble
MGRQAMKKFVDVSHTIENGLITYKGLPAPIICDYLSREESRSFYEPGTEFQIGKIEMVTNTGTYIDVPFHRYADGKDLSEATVEQMAGLEGVVIPVDKHVKKIDVDVFKSADLHGKAVLIYTGWDEHWNTERYFEDHPYVTEEAANYLKEQKVALVGIDSHNIDDTSGKRRPVHTILLRADILIVEHLCKLGQLVDQSFLFYAVAPKFKGAGTFPVRAFAEIVLEHHHHHH | soluble
MSKTAAITIDTPGADDFEPHRRHLYGLAYRMLGSWSEAEDIVQETWLRWREIDPATLDNARAFLSRIATRLCLDVLKSARVRRQVYVGPWLPEPLPDAQAYAGAAPGEIAHDVSVALMLALERLSASERAAFLLHDVFDVPFAEIAGTLGRTEAGCRQLAARARNRVRESRPRFAVEESEGIRLARAFIDAAQHGDVDVLRQLLADDAVLHSDGGGKKLAFMRPILGRANIVRAFAGLARKGQSDLSSVRIVQLNGMPAIYGIERDGLPRTISLGVCGGRIVRVYIMRNPDKLAHLARFTG | not soluble
MGSDKIHHHHHHMSERPTLHVVSLSGGKDSTATLCVALEQHGSENVRAVMADTGNEDEQNLEYALDYLPRALGIPVDVVRADFTDEFATKRANLARIAAGEPESAVYGKREFMYRWTPEAAARALEVLHPTGIPFLDLCLVRGGFPSRKRQFCTQYLKTEQLVGYALREIDRGYAVWSWQGVRIDESDSRRERLQGTGACVKAFEVVGGGLFNYRPILRWSAADVFEAHAAAGIRPNPLYRQGMSRVGCMPCINAGKLELREIARRFPEHVERIAEWERLVSEVCRPGSPVSFFHQGTTGHTGQASTIWKVVDWSKTSRGGRQYDLLADAEPATACSSAYGLCE | not soluble
SDPRGTKRGAEKTEVAEPRNKLPRPAPSLPTDPALYSGPFPFYRRPSELGCFSLDAQRQYHGDARALRYYSPPPTNGPGPNFDLRDGYPDRYQPRDEEVQERLDHLLCWLLEHRGRLEGGPGWLAEAIVTWRGHLTKLLTTPYERQEGWQLAASRFQGTLYLSEVETPNARAQRLARPPLLRELMYMGYKFEQYMCAGELPLLHSPLPLPRG | soluble
MGSDKIHHHHHHMLLRKAFKFEIRPNGEQIRKIKQFCGCSRFVFNRALAWQNEQYEQDNNQKFSYSKLTSLLPQWKKELIWLKECHSQVLQQSLKDLESAFKNFFQQRADFPKFKKKGIKESFRFPQGCKIQPQNDRLYLPKIGWVRYRNSREIVGEVKNVTVSQKCGRFFVSIQTEFEHEIPMHKGGEIGIDMGIARFATLSNGEFFEPINAFKTYKGKLAKLQKQLKNKVKFSKNWQKLKEKIGKLHHKIANCRKDFLHKISTQISKNHAMIYVEDLQVANMSKSAKGTVEAHGKNVKQKSGLNRSIRDQSWFEFRRQLDYKTQWLGGFLVAVPAQNTSRTCPCCGHIAKENRETQAHFECVECGYTENADVVGAMNVLTRGQAIVQA | not soluble
MAMEIGEDEWKVCCGSSEFAKQMSTSGPLTSQEAIYTARDIWFNQVNVTDWLEAFSAHPQIGNTPSPSINSDFARRSVSEQSTAFATTSASALQELAEWNVLYKKKFGFIFIICASGRTHAEMLHALKERYENRPIVELEIAAMEQMKITELRMAKLFSDKAKVISETDSSSSPVSTKPQDRLRIIGGHLNVAAEAKAPKRSRPPITTHVLDVSRGAPAAGVEVHLEVWSGTTGPSFVHGGGGVWSSVGTSATDRDGRSGPLMDLVDALNPGTYRISFDTAKYSPGCFFPYVSIVFQVTESQKWEHFHVPLLLAPFSFSTYRGS | soluble
MSLSALFCQAAAVAVTISGFAFSPAQTTVQVGDVITWTNMDNTLHSIVSTAVPAGAAPFTSGTFGKNETFTYTVTEAGDYTYQCGVHTSMLGAFTATITTPVVKPTLILEALYPNPASASIHIESPKSIKSIDIYSETGVLVKTLAFTSASVDVPIGELNKGAYLLRITSEDGMFDTRRIIKEGHHHHHH | soluble
MSKCSADETPVCCCMDVGTIMDNSDCTASYSRVFATRAEAEETLAALTEKARSVESEPCQITPTFTEESEGVRLDIDFVFACEAETLIFQLGLRLEHHHHHH | not soluble
MSLFTGPIVAVGEYVEGLGEGRRYVSIPYYRREIERVIGARPFPGTFNVRVEREERESLRELASSYGYRIEPHGEYGGAWLYPCLVNGRPAWLVFPDLTEHRDQVELISETELRRELNVIHGDMVKIEVWGPSTWKLARRLTCGPSGGREGHHHHHH | soluble
MGSDKIHHHHHHMKIKHIFTDMDGTLLDSHGSVSDTNHWSIYYSDLPITLVSARSPLEMSNIVEKLQLRTPQIAFNGNLTFTQNQFGLQIIDKNPLASETVSQLLNYISTEFPNVSLNWYSLAHWYINKQDKGTFIQKAITGIEPKIKTFDGQSEIYKIMMIVFDSQELLQLQAQLNNLNIPNISVQQSGQWYLEITSDNKTKADAVQSILDNKNLDFQEIAAIGDGHNDIPLLQSAGLAIAVDNANSEVKKHVKMVVAKNTEHGVAEAISAINTINEQVI | not soluble
SDAMDKRLKIATIGGGSSYTPELVEGLIKRYHELPVGELWLVDIPEGKEKLEIVGALAKRMVEKAGVPIEIHLTLDRRRALDGADFVTTQFRVGGLEARAKDERIPLKYGVIGQETNGPGGLFKGLRTIPVILDIIRDMEELCPDAWLINFTNPAGMVTEAVLRYTKQEKVVGLCNVPIGMRMGVAKLLGVDADRVHIDFAGLNHMVFGLHVYLDGVEVTEKVIDLVAHPDRSGVTMKNIVDLGWEPDFLKGLKVLPCPYHRYYFQTDKMLAEELEAAKTKGTRAEVVQQLEKELFELYKDPNLAIKPPQLEKRGGAYYSDAACSLISSIYNDKRDIQPVNTRNNGAIASISAESAVEVNCVITKDGPKPIAVGDLPVAVRGLVQQIKSFERVAAEAAVTGDYQTALVAMTINPLVPSDTIAKQILDEMLEAHKEYLPQFFKQAKATAGN | soluble
MNEKVFRDPVHNYIHIDNPLIYDLINTKEFQRLRRIKQVPTTAFTFHGAEHSRFSHCLGVYEIARRVTAIFEEKYADIWNKDESLVTMTAALLHDIGHGAYSHTFEVLFHTDHEAFTQEIITNPETEINAILVRHAPDFPDKVASVINHTYPNKQVVQLISSQIDCDRMDYLLRDSYFSAANYGQFDLMRILRVIRPVEDGIVFEHSGMHAVEDYIVSRFQMYMQVYFHPASRAVELILQNLLKRAQHLYPEQQAYFQKTAPGLIPFFEKKANLADYIALDDGVMNTYFQVWMASEDHILSDLASRFINRKILKSVTFDQDSQGELERLRQLVESVGFDPDYYTGIHINFDLPYDIYRPELENPRTQIEMMQKDGSLAELSQLSPIVKALTGTTYGDRRFYFPKEMLELDDLFAPSKETFMSYISNGHFHFSQ | not soluble
